Positions count from the first letter of the chain named.
Legend:
[1] = target: T1, human GIPR variant E288G (human) (UniProt P48546)
T1 sequence: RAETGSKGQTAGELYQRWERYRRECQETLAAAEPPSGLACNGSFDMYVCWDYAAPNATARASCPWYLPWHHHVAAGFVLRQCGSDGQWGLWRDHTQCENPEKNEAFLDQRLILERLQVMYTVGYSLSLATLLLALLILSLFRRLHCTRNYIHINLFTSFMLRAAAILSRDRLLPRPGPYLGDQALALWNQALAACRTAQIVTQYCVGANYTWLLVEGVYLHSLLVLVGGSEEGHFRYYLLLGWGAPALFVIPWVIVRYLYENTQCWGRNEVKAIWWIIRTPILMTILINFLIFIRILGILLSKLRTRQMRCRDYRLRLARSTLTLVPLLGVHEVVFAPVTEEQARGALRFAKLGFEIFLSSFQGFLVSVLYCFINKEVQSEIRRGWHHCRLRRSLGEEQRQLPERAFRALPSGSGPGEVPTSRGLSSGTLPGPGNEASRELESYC

[2] = target: T2, human GIPR double mutant R190Q-E288G (human) (UniProt P48546)
T2 sequence: T1 sequence with R169Q

[3] = target: T3, human GIPR variant R190Q (human) (UniProt P48546)
T3 sequence: T1 sequence with R169Q, G267E

[4] = target: T4, wild-type human GIP receptor (GIPR) (human) (UniProt P48546)
T4 sequence: T1 sequence with G267E

[5] = target: T1, human GIPR variant E288G (human); remark: listed apart in the source
[6] = target: T2, human GIPR double mutant R190Q-E288G (human); remark: listed apart in the source
[7] = target: T3, human GIPR variant R190Q (human); remark: listed apart in the source
[8] = target: T4, wild-type human GIP receptor (GIPR) (human); remark: listed apart in the source
[9] = scale: negative logarithm of molar concentration

Sequence of Rluc8-Arrestin-3-Sp1 (P32121 whole entry): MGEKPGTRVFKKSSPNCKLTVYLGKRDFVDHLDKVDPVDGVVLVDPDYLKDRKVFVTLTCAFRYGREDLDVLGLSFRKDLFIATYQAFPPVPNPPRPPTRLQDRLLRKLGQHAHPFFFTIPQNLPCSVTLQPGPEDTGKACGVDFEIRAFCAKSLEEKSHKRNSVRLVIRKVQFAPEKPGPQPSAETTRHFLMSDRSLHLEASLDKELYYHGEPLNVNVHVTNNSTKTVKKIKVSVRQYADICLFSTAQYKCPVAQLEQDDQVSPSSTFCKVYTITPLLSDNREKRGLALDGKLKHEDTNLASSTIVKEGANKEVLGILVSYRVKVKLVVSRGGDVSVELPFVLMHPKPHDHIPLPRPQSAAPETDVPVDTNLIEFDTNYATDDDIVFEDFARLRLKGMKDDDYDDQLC

“Rluc8-Arrestin-3-Sp1 (from UniProt P32121 1-409) (natural protein)” was tested. Which β-arrestin 2 recruitment in HEK293 cells (BRET between Rluc8-Arrestin-3-Sp1 and mem-linker-citrine-SH3, GRK2 co-expressed) on stimulation with GIP(1-42), Emax [1] did it give?
Its β-arrestin 2 recruitment in HEK293 cells (BRET between Rluc8-Arrestin-3-Sp1 and mem-linker-citrine-SH3, GRK2 co-expressed) on stimulation with GIP(1-42), Emax is 8.6 % of WT.

And the β-arrestin 2 recruitment in HEK293 cells (BRET, GRK2 co-expressed), pEC50 of GIP(1-42) [1, 9]?
Its β-arrestin 2 recruitment in HEK293 cells (BRET, GRK2 co-expressed), pEC50 of GIP(1-42) is 9.6.

What about the β-arrestin 2 recruitment in HEK293 cells (BRET between Rluc8-Arrestin-3-Sp1 and mem-linker-citrine-SH3, GRK2 co-expressed) on stimulation with GIP(1-42), Emax [2] of the same substance?
The β-arrestin 2 recruitment in HEK293 cells (BRET between Rluc8-Arrestin-3-Sp1 and mem-linker-citrine-SH3, GRK2 co-expressed) on stimulation with GIP(1-42), Emax was 12 % of WT.

What about the β-arrestin 2 recruitment in HEK293 cells (BRET, GRK2 co-expressed), pEC50 of GIP(1-42) [2, 9] of the same substance?
Its β-arrestin 2 recruitment in HEK293 cells (BRET, GRK2 co-expressed), pEC50 of GIP(1-42) is 8.

And the β-arrestin 2 recruitment in HEK293 cells (BRET between Rluc8-Arrestin-3-Sp1 and mem-linker-citrine-SH3, GRK2 co-expressed) on stimulation with GIP(1-42), Emax [3]?
Its β-arrestin 2 recruitment in HEK293 cells (BRET between Rluc8-Arrestin-3-Sp1 and mem-linker-citrine-SH3, GRK2 co-expressed) on stimulation with GIP(1-42), Emax is 9 % of WT.

And the β-arrestin 2 recruitment in HEK293 cells (BRET, GRK2 co-expressed), pEC50 of GIP(1-42) [3, 9]?
Its β-arrestin 2 recruitment in HEK293 cells (BRET, GRK2 co-expressed), pEC50 of GIP(1-42) is 9.1.

What about the β-arrestin 2 recruitment in HEK293 cells (BRET between Rluc8-Arrestin-3-Sp1 and mem-linker-citrine-SH3, GRK2 co-expressed) on stimulation with GIP(1-42), Emax [4] of the same substance?
The β-arrestin 2 recruitment in HEK293 cells (BRET between Rluc8-Arrestin-3-Sp1 and mem-linker-citrine-SH3, GRK2 co-expressed) on stimulation with GIP(1-42), Emax was 98 % of WT.

And the β-arrestin 2 recruitment in HEK293 cells (BRET, GRK2 co-expressed), pEC50 of GIP(1-42) [4, 9]?
Its β-arrestin 2 recruitment in HEK293 cells (BRET, GRK2 co-expressed), pEC50 of GIP(1-42) is 9.1.

What about the β-arrestin 2 recruitment in HEK293 cells (BRET, GRK2 co-expressed), EC50 of GIP(1-42) [5] of the same substance?
The β-arrestin 2 recruitment in HEK293 cells (BRET, GRK2 co-expressed), EC50 of GIP(1-42) was 0.23 nM.

What about the β-arrestin 2 recruitment in HEK293 cells (BRET, GRK2 co-expressed), EC50 of GIP(1-42) [6] of the same substance?
Its β-arrestin 2 recruitment in HEK293 cells (BRET, GRK2 co-expressed), EC50 of GIP(1-42) is 11 nM.

What about the β-arrestin 2 recruitment in HEK293 cells (BRET, GRK2 co-expressed), EC50 of GIP(1-42) [7] of the same substance?
The β-arrestin 2 recruitment in HEK293 cells (BRET, GRK2 co-expressed), EC50 of GIP(1-42) was 0.76 nM.

What about the β-arrestin 2 recruitment in HEK293 cells (BRET, GRK2 co-expressed), EC50 of GIP(1-42) [8] of the same substance?
Its β-arrestin 2 recruitment in HEK293 cells (BRET, GRK2 co-expressed), EC50 of GIP(1-42) is 0.88 nM.
